Assay [1] concerns the target SARS-CoV-2 Wuhan S RBD, biotinylated (SARS-CoV-2 (Wuhan), UniProt P0DTC2, biotin (biotinylated; site not stated)).
The target in assay [2] is SARS-CoV-2 spike glycoprotein (S) (SARS-CoV-2 (Wuhan), UniProt P0DTC2).

B1: ADAH15 (VHH)
VHH: QVQLQESGGGLVQAGGSLRLSCAASGTTYLAANMGWFRQAPGKEREFVAAITFFHNPTVYYADSVKGRFTISRDNAKNTVYLQMNSLKPEDTAVYYCAATVLVRDRIHFSHSIGIRYWGQGTQVTVSS
Turning to B1, the binding result in assay [1] and in assay [2] was “binds” in each case.

B2: ADAH14 (VHH)
VHH: QVQLQESGGGLVQAGGSLRLSCAASGSYFFHALMGWFRQAPVKEREFVASITAVPGATYYRRCTDSVKGRFTISRDNAKNTVYLQMNSLKPEDTAVYYCALATHSNRHTPITYWGQGTQVTVSS
Take B2: the binding result in assay [1] and in assay [2] was “binds” each time.
